According to the supplement of paper PMC10567573:

B1: MIA2 (parent)
chain: DMVSNIELPTRIHEEVYFEPSSSK

Variants of: B1
Assay: protein stability index of a GFP-peptide fusion (GPS, HEK-293T) (PSI 1-6); higher = more stable
Details: c terminus: a fixed tail appended
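Also: lentivirally expressed fusions sorted by FACS into six bins by GFP to DsRed ratio, PSI derived from sequencing read proportions per bin multiplied by bin number.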

Protein stability index of substitutions, site by site:
E15: F 2.62, R 2.96, K 3.52, N 3.29, S 3.54, G 3.84, D 4.45, A 3.35, T 3.9, Q 3.44, V 2.6, H 3.63, Y 3.22, C 2.97, I 2.28, P 2.96, W 2.75, L 3.27, M 2.72
E7: N 2.85, Y 2.11, Q 2.9, V 3.53, P 3.34, C 3.32, F 3.59, T 2.78, H 3.98, M 3.29, L 3.16, S 3.02, D 3.83, G 3.58, W 2.64, R 3.33, K 3.03, A 3.65, I 2.88
N5: E 4.18, H 4.3, F 3.95, W 4.38, A 4.14, Y 2.46, L 3.19, I 3.86, V 3.5, R 3.92, T 4.47, C 4.04, M 3.99, Q 4.33, P 5.11, K 4.43, G 3.84, D 4.56, S 4.46
V16: L 4.09, T 4.05, K 3.89, I 3.87, E 5.02, M 3.46, A 4.26, P 4.12, N 4.47, H 3.55, F 3.87, S 4.02, Q 4.02, Y 3.49, G 4.16, W 3.73, D 4.77, C 4.33, R 3.17
L8: D 4.54, A 4.46, R 3.64, T 4, C 4.02, I 4.04, E 5.22, H 4.56, N 4.44, Q 4.53, P 4.4, F 4.47, M 3.46, S 4.5, V 4.13, Y 3.52, W 4.22, G 4.74, K 3.83
T10: F 3.86, L 4.11, M 3.81, K 3.4, C 1.67, E 4.01, D 4.74, H 4.47, A 4.23, N 3.61, P 4, G 3.83, Q 4.44, W 3.27, V 3.65, S 4.13, Y 3.83, R 3.63, I 3.94
P20: N 4.12, R 4.18, L 2.72, H 4.06, F 2.42, T 3.62, S 3.52, I 3.02, Y 2.99, D 4.6, K 3.84, A 3.69, E 4.28, M 1.88, Q 4.02, V 2.56, C 3.42, G 4.16, W 2.63
S21: C 3.71, N 4.19, D 4.56, M 3.4, K 3.46, E 4.64, Q 3.9, P 4.3, I 4, H 3.97, A 3.71, R 3.13, F 3.56, L 3.34, G 4.47
E14: R 2.98, M 2.58, F 2.46, S 3.29, T 3.07, Q 3.43, N 3.82, Y 1.86, L 2.04, G 3.28, A 3.51, D 3.59, C 1.91, H 3.28, K 3.36, W 2.88, P 3.16
F18: S 4.62, Y 4.76, V 3.8, Q 5.12, R 4.28, P 4.23, C 3.59, W 3.52, E 4.68, G 4.63, A 4.12, T 4.63, M 4.48, L 4.5, N 4.68, D 5.29, I 4.52, H 4.64, K 3.51
I12: R 3.06, E 4.33, A 4.18, W 3.59, H 3.42, M 3.6, K 3.64, P 3.86, T 3.98, C 3.22, G 4.39, Y 3.87, V 4.25, L 3.89, F 3.57, D 4.79, Q 4.11, N 3.69, S 4.51
P9: T 3.69, N 4.06, C 3.53, G 3.53, A 3.46, V 2.94, W 2.98, E 4.21, L 3.65, S 3.31, Q 4.08, M 3.35, R 3.6, D 3.46, I 3.3, H 3.5, Y 3.41, F 3.01, K 3.89
S4: W 2.6, L 3.12, D 3.98, M 3.51, E 4.48, Q 3.52, G 3.82, H 4.29, Y 4.01, P 4.34, K 4.07, N 4.03, R 3.97, F 2.35, I 1.93, V 3.33, T 3.73
Y17: L 4.29, H 4.29, W 4.21, C 4.52, N 4.32, G 4.47, D 4.41, E 4.95, I 3.94, F 4.35, V 4.3, T 4.28, P 4.97, A 3.67, M 3.73, S 4.06, Q 4.26, R 5.01, K 4.27
I6: E 5.27, Y 4.03, K 4.68, S 4.07, C 4.91, R 3.84, N 4.77, H 4.34, G 4.52, V 4.18, L 4.16, P 4.4, A 4.51, T 4.48, F 4.08, Q 4.19, M 4.32, D 4.86, W 3.32
R11: L 3.94, K 3.77, C 3.62, S 4.07, N 4.39, I 3.58, G 4.86, H 3.43, D 4.49, A 4.7, W 3.52, P 4.09, T 4.27, F 3.42, Y 3.26, Q 4.42, M 4.16, V 4.14, E 4.5
E19: C 2.96, G 3.09, I 2.64, L 3.63, H 3.14, Q 3.29, N 3.41, A 3.53, R 3.29, T 3.4, V 3.15, F 2.86, W 2.72, P 3.52, K 3.54, Y 2.87, M 3.31, D 3.38, S 3.82
H13: P 4.32, C 3.37, W 3.15, T 3.02, Y 3.57, K 3.64, S 3.33, M 3.02, E 4.44, V 3.62, A 4, N 4.19, F 3.81, L 3.99, Q 3.84, R 3.8, D 3.59, I 3.42, G 4.05
